Molecular target: 40S-containing ribosomal complexes
Test: co-sedimentation

B1: DExH-box protein DHX29 (enzyme)
chain: MGGKNKKHKAPGAAAVRAAVSASRAKSAEAAAAGEAQSKKPVARPPPAAAAGAREPRVKQGPKIYSFNSANDSGGPANVDKSILKVVINNKLEQRIIGVINEHKKQNNDKGMISGRLTAKKLQDLYMALQAFSFKTKDIEDAMTNTLLHGGDLHSALDWLCLNLSDDALPEGFSQEFEEQQAKSRPKFQAPQIQATISPPLQPKIKKQEEDPKIKPKKEDKNMEVNMKEWILQYAERQKEEEKSESSKSLEEEEKFDPNERYLHLAAKFLDAKEQAAAFKLEKNKQGQKEAQEKIRKFQREMETLEDHPVFNPAIKISYQQNERKKPPVATEGESSLNFNLFEKSAAPTEEEKDKKKEPHDVRNFDYTARSWTGKSPKQFLIDWVRKNLPKSPNPSFEKVPVGRYWKCRVRVIKSEDDVLVVCPAILTEDGMQAQHLGATLALYRLVKGQSVHQLLPPTYRDVWLEWSDAEKKKEELNKMETNKPRDLFIAKLLNKLKQQQQLQQQHSENKKENSEDPEESWENLVSEEDFSALSLESAVAEDLEPVRNLFRKLQSSPKYQRLLKERQQLPVFKHRESIVETLKRHRVVVVAGETGSGKSTQVPHFLLEDLLLNEWGTSKCNIICTQPRRISAVSLATRVCDELGCENGPGGRNSLCGYQIRMESRASESTRLLYCTTGVLLRKLQEDGLLSNVSHVIVDEVHERSVQSDFLLVILKEILQKRSDLHLILMSATVDSEKFSTYFTHCPILRISGRSYPVEVFHLEDIIEETGFVLEKDSEYCQKFLEEEEEITINVTSKAGGIKKYQEYIPVQTGTTADLNPLYQKYSNRTQHAILYMNPHKINLDLILELLVYLDKSPQFRNIEGAVLIFLPGLAHIQQLYDLLSNDRRFYSERYKVIALHSILSTQDQAAAFTLPPPGVRKIVLATNIAETGITIPDVVFVIDTGRTKENKYHESSQMSSLVETFVSKASALQRQGRAGRVRDGFCFRMYTRERFEGFMDYSVPEILRVPLEELCLHIMKCNLGSPEDFLSKALDPPQLQVISNAMNLLRKIGACELNEPKLTPLGQHLAALPVNVKIGKMLIFGAIFGCLDPVATLAAVMTEKSPFTTPIGRKEEADLAKSALAIADSDHLTIYNAYLGWKKAQQEGGYRSELAYCRRNFLNRTALLTLEDVKQELMKLVKAAGFSSTTSNNWEGNRASQTLSFQEIALLKAVLAAGLYDNVGKIIYTKSVDVTEKLACIVETAQGKAQVHPSSVNRDLQTYGWLLYQEKIRYARVYLRETTLITPFPVLLFGGDIEVQHRERLLSIDGWIYFQAPVKIAVIFKQLRVLIDSVLRKKLENPKMSLENDKILQIITELIKTENN
- percent of 40S-ribosomal complexes associated with DHX29: 10%

— paper PMC2948571
